For this experiment, the target named is Human CXCR7 (human) (UniProt P25106). Nature of the experiment: competition FACS, 4 nM biotinylated SDF-1 on HEK-hCXCR7 cells.
Sequence of Human CXCR7 (human) (P25106 whole entry): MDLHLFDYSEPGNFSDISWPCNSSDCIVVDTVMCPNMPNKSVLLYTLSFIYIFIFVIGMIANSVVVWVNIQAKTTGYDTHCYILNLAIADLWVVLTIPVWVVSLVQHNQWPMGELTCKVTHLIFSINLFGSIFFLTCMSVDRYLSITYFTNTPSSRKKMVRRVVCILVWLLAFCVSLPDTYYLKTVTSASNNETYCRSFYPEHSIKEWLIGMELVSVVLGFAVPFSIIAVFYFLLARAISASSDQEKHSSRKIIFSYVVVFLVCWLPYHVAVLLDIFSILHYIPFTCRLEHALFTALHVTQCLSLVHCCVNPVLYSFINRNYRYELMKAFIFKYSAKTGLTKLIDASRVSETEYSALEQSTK

Take Mab 8F11 (Biolegend) (antibody): the % competition relative to unlabelled SDF-1 was over 95%.

Values taken from US20140227270A1.
